US20200247894A1 (Regeneron, published 2020)

T1: Human IL2Rγ extracellular domain expressed with a C-terminal myc-myc-hexahistidine tag (human)
T1 construct: also called hIL-2Rg-MMH; hIL-2RG-MMH
T1 chain: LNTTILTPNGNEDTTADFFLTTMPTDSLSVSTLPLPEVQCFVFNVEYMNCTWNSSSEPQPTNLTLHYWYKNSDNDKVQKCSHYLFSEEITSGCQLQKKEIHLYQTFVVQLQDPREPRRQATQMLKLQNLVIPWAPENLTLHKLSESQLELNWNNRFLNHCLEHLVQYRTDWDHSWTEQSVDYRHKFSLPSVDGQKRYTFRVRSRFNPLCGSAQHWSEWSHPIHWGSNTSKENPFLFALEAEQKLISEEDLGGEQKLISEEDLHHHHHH

T2: Macaca fascicularis IL2Rγ extracellular domain expressed with a C-terminal myc-myc-hexahistidine tag (Macaca fascicularis)
T2 construct: also called mfIL-2Rg-MMH; mfIL-2RG-MMH
T2 chain: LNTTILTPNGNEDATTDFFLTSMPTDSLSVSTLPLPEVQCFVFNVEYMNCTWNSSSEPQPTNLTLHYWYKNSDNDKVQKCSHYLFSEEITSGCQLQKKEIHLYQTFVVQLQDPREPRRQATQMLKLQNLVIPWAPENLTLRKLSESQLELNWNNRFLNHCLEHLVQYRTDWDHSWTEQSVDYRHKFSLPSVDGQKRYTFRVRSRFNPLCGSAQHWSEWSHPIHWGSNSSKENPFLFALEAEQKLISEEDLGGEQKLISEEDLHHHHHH


Columns and labels:
[1] = biological target: T1, Human IL2Rγ extracellular domain …; assay: SPR, captured mAb, 37C, dissociation pH 6.0
Procedure: (§1) The dissociation rate constant (kd) for binding of IL-2Rγ reagents to purified anti-IL2Rγ monoclonal antibodies was determined using a real-time surface plasmon resonance based Biacore 4000 biosensor platform. […] The CM5 Biacore sensor surface derivatized by amine coupling with monoclonal mouse anti-human Fc antibody (GE, Catalog # BR-1008-39) was used to capture anti-IL2Rγ monoclonal antibodies expressed with human IgG4 Fc. All the IL2Rγ reagents were expressed with a C-terminal myc-myc-hexahistidine tag (subsequently referred to with a -MMH suffix). […] The dissociation of bound IL-2Rg-MMH was performed in PBS-T-pH7.4 or PBS-T-pH6.0 running buffers for 6 minutes.
(§2) Dissociation rate constants (kd) in two running buffers were determined by fitting the real-time binding sensorgrams to a 1:1 binding model using Scrubber 2.0c curve-fitting software. Values of dissociation rate for […] mAb binding to hIL-2RG-MMH and mfIL-2RG-MMH at 25° C. and 37° C. in PBS-T-pH7.4 and PBS-T-pH6.0 is shown in Table 2-1 through Table 2-8.

[2] = biological target: T1, Human IL2Rγ extracellular domain …; assay: SPR, captured mAb, 37C, dissociation pH 7.4
Procedure: as §1, §2

[3] = biological target: T1, Human IL2Rγ extracellular domain …; assay: SPR, captured mAb, 25C, dissociation pH 7.4
Procedure: as §1, §2

[4] = biological target: T2, Macaca fascicularis IL2Rγ extracellular …; assay: SPR, captured mAb, 25C, dissociation pH 7.4
Procedure: as §1, §2

[5] = biological target: T1, Human IL2Rγ extracellular domain …; assay: SPR, captured mAb, 25C, dissociation pH 6.0
Procedure: as §1, §2

[6] = biological target: T2, Macaca fascicularis IL2Rγ extracellular …; assay: SPR, captured mAb, 25C, dissociation pH 6.0
Procedure: as §1, §2

Binder	100 nM Ag Bound (RU) [1] [RU]	koff [1] [s⁻¹]	t1/2 [1] [min]	100 nM Ag Bound (RU) [2] [RU]	koff [2] [s⁻¹]	t1/2 [2] [min]	100 nM Ag Bound (RU) [3] [RU]	koff [3] [s⁻¹]	t1/2 [3] [min]	100 nM Ag Bound (RU) [4] [RU]	koff [4] [s⁻¹]	t1/2 [4] [min]	100 nM Ag Bound (RU) [5] [RU]	koff [5] [s⁻¹]	t1/2 [5] [min]	100 nM Ag Bound (RU) [6] [RU]	koff [6] [s⁻¹]	t1/2 [6] [min]
H4H12871P (antibody, human IgG4 S228P, kappa, V domains shown, anti-IL2Rgamma mAb expressed with human IgG4 Fc; also called REGN9434) VH: QVQLQESGPGLVKPSQTLSLTCTVSGGSITSGGYYWSWIRQYPGQGLEWIGYIYYSGKTYYNPSFTSRITISVDTSKKQFSLKMSSVTAADTAVYYCARAGFTSSNGWFDPWGQGTLVTVSS VL: DIQMTQSPSSLSASVGDRVTITCRASQNIRSYLNWYQQKPGKAPKLLIYSASSLQSGVPSRFSGSGSGTDFTLTISSLQPEDFPTYYCQQTYSSPWTFGPGTKVEIKR	141	0.00246	5	139	0.00111	10	121	0.000596	19	125	0.000481	24	129	0.00136	8	128	0.00116	10
H4H12884P (antibody, human IgG4 S228P, kappa, V domains shown, anti-IL2Rgamma mAb expressed with human IgG4 Fc) VH: QVQLQESGPGLVKPSQTLSLTCTVSGGSISSGGYYWSWIRQHPGKGLEWIGFIYYSGKTYYNPSLKSRLTISVDTSKSQFSLKLRSVTAADTAVYYCARLGYTNSAGWFDPWGQGTLVTVSS VL: DIQMTQSPSSLSASVGDRVTITCRASQSISSYLNWYQQKPGKAPNLLIYAASSLQSGVPSRFSGSGSGTDFTLTISSLQPEDLATYYCQQSYTTPFTFGPGTKVDIKR	136	0.00379	3	171	0.00151	8	161	0.00064	18	160	0.000516	22	135	0.00199	6	133	0.00159	7
H4H12890P (antibody, human IgG4 S228P, kappa, V domains shown, anti-IL2Rgamma mAb expressed with human IgG4 Fc) VH: EVQLVESGGGLVQPGGSLRLSCAASGFTFNNYAMHWVRQAPGKGLEYVSSISSSGGSTYYEDSVKGRFTISRDNSKNTLYLQMGSLRAEDMAVYYCARSFYGSGTYYDTFDMWGQGTMVTVSS VL: DIQMTQSPSSLSASIGDRVTITCRASQSISRYLNWYQQKPGKAPKLLIYAASSLQSGVPSRFSASGSGTDFTLTISSLQPEDFATYYCQQSYSTPFTFGQGTKLEIKR	82	0.00286	4	90	0.000661	17	72	0.000192	60	71	0.000203	57	64	0.000636	18	60	0.000668	17
H4H12886P (antibody, human IgG4 S228P, kappa, V domains shown, anti-IL2Rgamma mAb expressed with human IgG4 Fc) VH: EVQLVESGGGLVKPGGSLRLSCAASGFTFSTAWMSWVRQSPGRGLEWVGRMKSKTDGGTTFYAAPVKGRFTISRDDSKNTLYLQMNSLKTEDTAVYYCTTGLVPAFYKYYGVDVWGQGTTVTVSS VL: DIQMTQSPSSLSASVGDRITITCQASQDITNYLNWYQQKPGKAPNLLIYDASNLVTGVPSRFSGSGSGTDFTFTILSLQPEDIATYYCQQYDSLLTFGPGTKVDIKR	115	0.00216	5	146	0.000519	22	113	0.000155	75	113	0.000175	66	84	0.000634	18	83	0.000682	17
H4H12874P (antibody, human IgG4 S228P, kappa, V domains shown, anti-IL2Rgamma mAb expressed with human IgG4 Fc) VH: QVQLVESGGGVVQPGRSLRLSCAASGFNFRNFGMHWVRQAPGKGLEWVAGILYDGSSKYYADSVKDRFTISRDNSKNTLFLQMNSLRAEDTAMYYCAKEEDTAMVPFDSWGPGTLVTVSS VL: DIQLTQSPSFLSASVGDRVTITCWASQGISSYLAWYQQKPGKAPTLLIYAASTLQSGVPSRFSGSGSGTEFTLTISSLQPEDFASYYCQQLKSYPLTFGGGTKVEIKR	91	0.00261	4	99	0.000572	20	72	0.000162	71	73	0.000164	70	66	0.000724	16	64	0.000729	16
H4H12889P (antibody, human IgG4 S228P, kappa, V domains shown, anti-IL2Rgamma mAb expressed with human IgG4 Fc; also called REGN7257) VH: EVQLVESGGGLVQPGGSLRLSCAASGFIFSSYEMHWVRQAPGKGLEWISYISSSGTTIYYADSVKGRFTISRDNAKNSLYLHMNSLRAEDTAVYYCTRARITGTFDVFDIWGQGTMVTVSS VL: DIQMTQSPSSLSASVGDRVTITCRASQSISSYLNWYQQKPGKAPKLLIFAASNLQSGVPSRFSGSRSGTDFTLTISSLQPEDFATYYCQQNYNIPYTFGQGTKLEIKR	153	0.00188	6	147	0.000636	18	118	0.000138	84	123	0.000157	74	130	0.000437	26	126	0.000434	27
